B1: VEGF189: natural VEGF189 isoform with strong heparin-binding domain, constructed with a myc-tag (SEQ ID NO: 3), tested for comparison (protein)
chain: MNFLLSWVHWSLALLLYLHHAKWSQAAPMAEGGGQNHHEVVKFMDVYQRSYCHPIETLVDIFQEYPDEIEYIFKPSCVPLMRCGGCCNDEGLECVPTEESNITMQIMRIKPHQGQHIGEMSFLQHNKCECRPKKDRARQEKKSVRGKGKGQKRKRKKSRYKSWSVPCGPCSERRKHLFVQDPQTCKCSCKNTDSRCKARQLELNERTCRCDKPRRKLGNGNGEQKLISEEDLGN
modifications: myc tag
B2: eVEGF-53: engineered covalently linked dimer of VEGF121 isoform with a 53 amino acid glycine-rich linker connected to a GPI anchor (SEQ ID NO: 2) (protein)
chain: MNFLLSWVHWSLALLLYLHHAKWSQAAPMAEGGGQNHHEVVKFMDVYQRSYCHPIETLVDIFQEYPDEIEYIFKPSCVPLMRCGGCCNDEGLECVPTEESNITMQIMRIKPHQGQHIGEMSFLQHNKCECRPKKDRARQEKCDKPRRGGSSGGSSGGSGGGTGGGSGAPMAEGGGQNHHEVVKFMDVYQRSYCHPIETLVDIFQEYPDEIEYIFKPSCVPLMRCGGCCNDEGLECVPTEESNITMQIMRIKPHQGQHIGEMSFLQHNKCECRPKKDRARQEKCDKPRRGNGNGNGNGNGNGNEQKLISEEDLKLAAAGNGNGNGNGNGNGNGDGNGGALCNGAGFATPVTLALVPALLATFWSLL
B3: eVEGF-38: engineered covalently linked dimer of VEGF121 isoform with a 38 amino acid glycine-rich linker connected to a GPI anchor (SEQ ID NO: 1) (protein)
chain: MNFLLSWVHWSLALLLYLHHAKWSQAAPMAEGGGQNHHEVVKFMDVYQRSYCHPIETLVDIFQEYPDEIEYIFKPSCVPLMRCGGCCNDEGLECVPTEESNITMQIMRIKPHQGQHIGEMSFLQHNKCECRPKKDRARQEKCDKPRRGGSSGGSSGGSGGGTGGGSGAPMAEGGGQNHHEVVKFMDVYQRSYCHPIETLVDIFQEYPDEIEYIFKPSCVPLMRCGGCCNDEGLECVPTEESNITMQIMRIKPHQGQHIGEMSFLQHNKCECRPKKDRARQEKCDKPRRGNGNGEQKLISEEDLKLAAAGNGGNGNGNGDGNGALCNGAGFATPVTLALVPALLATFWSLL

How the values were obtained:
[1] = system: primary mouse RGC; test: Axon and neurite formation in primary mouse RGC; type: cell-based; conditions: for average axon length per RGC / average number of neurites per RGC / percentage of RGC with axons longer than 3× cell body length / average number of branch points of neurite per RGC: primary RGC; for average axon length per RGC / average number of neurites per RGC / percentage of RGC with axons longer than 3× cell body length: compared to the GFP control; for average number of branch points of neurite per RGC: compared to control
From the text: FIG. 6 is a series of photomicrographs showing correlative fluorescence and electron microscopy showing extra long axons (>1400 μm) from some of the eVEGF-38 overexpressing primary RGC. Green arrows, eVEGF-38 overexpressing cells; blue arrows, untransduced primary mouse RGC.
FIGS. 7A and 7B are a series of bar graphs and dot plots showing that VEGFR2 signaling is required for the formation of long axons by primary RGC overexpressing eVEGF-38, eVEGF-53, and VEGF189. […] Recombinant VEGF121 protein was added to a final concentration of 2.5 nM. […] Labels: 38, eVEGF-38; 53, eVEGF-53; 189, VEGF189; UT, untreated. Data=mean±SD, n=15 fields from 3 independent wells per group, *P<0.05, **P<0.01, ***P<0.001, one-way ANOVA.
(§1) eVEGF-38 and eVEGF-53 localize to the cell membrane and comprise myc-tags. VEGF189 was constructed with a myc-tag. The constructs were packaged into adeno-associated virus serotype 2 (AAV2) for efficient transduction and expression in human microvascular endothelial cells (hREC) and RGC. Transgenes expression was measured by western blot, qPCR and immunostaining. In hREC, VEGFR2, VCAM-1, E-selectin and tissue factor expression were measured by immunostaining or qPCR. VEGFR2 signaling, axon length, and synapse formation in RGC were measured by immunostaining. RGC survival was measured by TUNEL staining and intracellular [Ca2+] was measured using fura2/AM calcium imaging.

[2] = system: primary mouse RGC; test: Survival of primary mouse RGC in culture; type: cell-based; conditions: control 22% survival, P<0.001
Experimental: FIG. 3A is a bar graph showing the results from experiments using primary mouse RGC isolated from P3 pups were transduced with different AAVs to overexpress eVEGF-38, eVEGF-53, VEGF189, or the control GFP on the day of isolation (day 0), or treated with exogenous recombinant VEGF121 protein on day 2. The number viable RGC was determined by immunostaining for beta III tubulin while total cell number per field was determined by DAPI staining on day 3 of culture.
FIG. 3B is a bar graph showing that the majority of the viable RGC were expressing the eVEGF-38, eVEGF-53, or VEGF189, whereas the GFP-expressing RGC were not protected in culture. Data=mean±SD, ***P<0.001 by unpaired t-test, n=15 different fields total (5 fields/well) from three independent wells of primary RGC.
as §1

[3] = molecular target: T1, VEGFR2 (Homo sapiens, UniProt P35968); test: VEGFR2 activation (p-VEGFR2 western blot) in transfected hREC; type: cell-based; conditions: hREC transfected with expression construct; lysate at 24 and 48 hours post transfection; vs GFP control
T1 construct: Human retinal endothelial cells (hREC) that express VEGFR2; endogenous in cells; host or cells: human retinal endothelial cells (hREC)
Experimental: Human retinal endothelial cells (hREC) that express VEGFR2 were transfected with eVEGF-38 or eVEGF-53, or VEGF189, or control GFP (ctr) expression construct and total cell lysate was collected at 24 and 48 hours post transfection. Activation of VEGFR2 was determined by the levels of VEGFR2 phosphorylation (p-VEGFR2). Data=mean±SD, **P<0.01 by unpaired t-test, n=3 independent western blot assays.
as §1

[4] = system: primary RGC; test: Synapse formation / synaptophysin expression in primary RGC; type: cell-based, mouse; conditions: for synaptic vesicle marker synaptophysin in axons and neurites: primary RGC overexpressing the transgene
Experimental: as §1

[5] = system: human microvascular endothelial cells (hREC); test: Pro-inflammatory markers (VCAM-1, E-selectin, tissue factor) in hREC by immunostaining or qPCR; type: cell-based; conditions: compared with GFP/AAV2 control, p<0.05
Experimental: as §1

[6] = system: primary mouse RGC; test: H2O2-induced cell death of primary mouse RGC (TUNEL staining); type: cell-based; conditions: P<0.05
Experimental: as §1, with “Cell death was analyzed by TUNEL staining” for “eVEGF-38”, “transgene expression by immunostaining. Percentage of viable RGC was determined by: (TUNEL-negative RGC with transgenes expression)/(total” for “eVEGF-53 localize to the”, “number by DAPI staining). […]” for “membrane and comprise myc-tags. VEGF189 was constructed with a myc-tag.”

[7] = system: RGC; test: Intracellular [Ca2+] in RGC by fura2/AM calcium imaging; type: cell-based, mouse; conditions: upon carbachol and NMDA stimulation; compared to control
Experimental: as §1

[8] = system: primary mouse RGC; test: Gene expression analysis of primary mouse RGC; type: cell-based; conditions: overexpressing primary mouse RGC; vs GFP control
From the text: FIG. 9 is a series of bar graphs showing that overexpression of eVEGF-38 in primary RGC suppresses genes that are associated with cell death and suppression of axon formation, but induces genes that are associated with axon growth and neuronal function. Label: 38, eVEGF-38; Ctr, GFP control. Data=mean±SD, n=3 independent wells of primary RGC, *P<0.05, **P<0.01, ***P<0.001 by unpaired t-test.
Furthermore, eVEGF-38 and eVEGF-53 chimeric polypeptides and VEGF189 expression enhanced axons and neurites formation of primary mouse RGCs (FIGS. 5A-C, FIG. 6, and FIGS. 7A-B), supported synaptogenesis and likely neuronal function (FIG. 8), which are consistent with the role of VEGF in promoting neurogenesis and neuronal function in vitro and in vivo. […] Together, the data support overexpression of eVEGF-38, eVEGF-53 and the natural VEGF189 isoform in RGC promotes cell-autonomous RGC survival, axon growth and regeneration, and neuronal function, and is useful and a therapeutic agent for treatment of glaucoma. The chimeric polypeptides can be used therapeutically via a gene therapy approach (AAV) for eVEGF-38, eVEGF-53 and VEGF189. Activity is tested in animal models of glaucoma and optic nerve injury/regeneration.

T1 sequence (P35968 20-1356): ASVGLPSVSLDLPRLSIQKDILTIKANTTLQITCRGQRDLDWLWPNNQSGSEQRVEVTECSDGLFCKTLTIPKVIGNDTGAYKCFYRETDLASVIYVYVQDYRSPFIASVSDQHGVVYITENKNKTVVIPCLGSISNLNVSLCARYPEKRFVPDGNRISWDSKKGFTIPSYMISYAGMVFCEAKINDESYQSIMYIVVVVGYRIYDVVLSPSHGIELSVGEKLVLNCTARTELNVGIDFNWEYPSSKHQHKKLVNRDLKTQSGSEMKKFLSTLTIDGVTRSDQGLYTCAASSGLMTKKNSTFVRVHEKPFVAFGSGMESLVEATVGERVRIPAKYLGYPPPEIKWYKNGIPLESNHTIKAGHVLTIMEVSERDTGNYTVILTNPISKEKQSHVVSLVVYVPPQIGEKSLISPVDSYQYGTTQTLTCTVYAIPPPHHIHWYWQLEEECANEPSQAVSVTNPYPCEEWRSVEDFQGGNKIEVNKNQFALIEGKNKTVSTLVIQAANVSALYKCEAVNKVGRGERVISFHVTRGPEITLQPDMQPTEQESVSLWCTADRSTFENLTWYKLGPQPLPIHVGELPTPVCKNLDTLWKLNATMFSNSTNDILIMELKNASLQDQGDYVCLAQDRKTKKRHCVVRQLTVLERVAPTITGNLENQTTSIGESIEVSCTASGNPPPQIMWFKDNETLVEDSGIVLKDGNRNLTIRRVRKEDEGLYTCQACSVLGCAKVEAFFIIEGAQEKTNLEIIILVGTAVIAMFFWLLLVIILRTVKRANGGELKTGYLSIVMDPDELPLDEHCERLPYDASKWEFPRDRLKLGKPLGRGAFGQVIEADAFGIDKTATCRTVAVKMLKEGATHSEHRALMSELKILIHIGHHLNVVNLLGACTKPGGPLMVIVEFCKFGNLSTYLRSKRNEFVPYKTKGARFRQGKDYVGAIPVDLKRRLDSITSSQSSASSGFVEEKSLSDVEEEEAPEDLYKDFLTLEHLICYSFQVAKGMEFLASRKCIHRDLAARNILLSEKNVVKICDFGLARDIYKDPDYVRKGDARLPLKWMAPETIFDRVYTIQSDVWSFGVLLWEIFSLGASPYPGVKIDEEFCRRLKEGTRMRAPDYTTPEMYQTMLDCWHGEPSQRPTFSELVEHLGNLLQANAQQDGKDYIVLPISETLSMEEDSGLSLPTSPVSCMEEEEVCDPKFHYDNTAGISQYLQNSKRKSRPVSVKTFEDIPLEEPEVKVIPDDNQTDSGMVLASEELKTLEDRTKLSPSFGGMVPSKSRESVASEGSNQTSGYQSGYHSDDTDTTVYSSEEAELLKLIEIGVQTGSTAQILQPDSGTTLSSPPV

Row | Molecule | average axon length per RGC [1] | average number of neurites per RGC [1] | percentage of RGC with axons longer than 3× cell body length [1] | RGC survival [2] | VEGFR2 activation by levels of VEGFR2 phosphorylation (p-VEGFR2) [3] | synapse formation ([4]; RGC) | synaptic vesicle marker synaptophysin in axons and neurites [4] | pro-inflammatory markers [5] | increased RGC survival upon H2O2 treatment compared to control [6] | average number of branch points of neurite per RGC [1] | intracellular [Ca2+] [7] | length of extra long axons ([1]; some of the overexpressing primary RGC, correlative fluorescence and electron microscopy) | genes involved in apoptosis and cell death (bax/bcl2 ratio) and inhibition of axon formation (Tsc1) [8] | genes involved in axon growth (KLF7), neurogenesis (Microtubule-associated protein 1B) and synaptic vesicle trafficking (vesicle-associated membrane protein 3) [8]
1 | B1 | significantly increases | significantly increases | significantly increases | 50% | can sustain VEGFR2 activation in a cell autonomous fashion | promoted synapse formation | also express synaptic vesicle marker synaptophysin | increased | 18% |  |  |  |  | 
2 | B2 | significantly increases | significantly increases | significantly increases | 48% | can sustain VEGFR2 activation in a cell autonomous fashion |  | also express synaptic vesicle marker synaptophysin |  | 15% | significantly increase | decreased |  |  | 
3 | B3 | significantly increases | significantly increases | significantly increases | 45% | can sustain VEGFR2 activation in a cell autonomous fashion |  | also express synaptic vesicle marker synaptophysin |  | 10% | significantly increase | decreased | > 1400 μm | down-regulation | up-regulation
